Results as given in US20130058939.

Molecular target: mouse NMDA receptor NR1 subunit, P35438

B1: rt-PA (alteplase), recombinant human t-PA (protein)
chain: SYQVICRDEKTQMIYQQHQSWLRPVLRSNRVEYCWCNSGRAQCHSVPVKSCSEPRCFNGGTCQQALYFSDFVCQCPEGFAGKCCEIDTRATCYEDQGISYRGTWSTAESGAECTNWNSSALAQKPYSGRRPDAIRLGLGNHNYCRNPDRDSKPWCYVFKAGKYSSEFCSTPACSEGNSDCYFGNGSAYRGTHSLTESGASCLPWNSMILIGKVYTAQNPSAQALGLGKHNYCRNPDGDAKPWCHVLKNRRLTWEYCDVPSCSTCGLRQYSQPQFRIKGGLFADIASHPWQAAIFAKHRRSPGERFLCGGILISSCWILSAAHCFQERFPPHHLTVILGRTYRVVPGEEEQKFEVEKYIVHKEFDDDTYDNDIALLQLKSDSSRCAQESSVVRTVCLPPADLQLPDWTECELSGYGKHEALSPFYSERLKEAHVRLYPSSRCTSQHLLNRTVTDNMLCAGDTRSGGPQANLHDACQGDSGGPLVCLNDGRMTLVGIISWGLGCGQKDVPGVYTKVTNYLDWIRDNMRP
Q: B1 was tested. Which “net integrated increase in [Ca2+]i evoked by NMDA after 15 min exposure to t-PA (20 µg/ml)” value did it give?
A: Its value is “the net integrated increase in [Ca^2+]i (area under the curve expressed in arbitrary units) was enhanced by 37%”.
